Data published in the supplement of paper PMC7125110.
± gives the standard error. For some of these results: Fewer inactive variants are shown than the library holds.

B1: glmS ribozyme (parent)
chain: AUAAAAGCGCCAGAACUACAGAAAUGUAGUUGACGAGGAGGAGGUUUAUCGAAUUUUCGGCGGAUGCCUCCAAA

Tests used:
Conditions in all cases: with glucosamine-6-phosphate
glucosamine-6-phosphate [1] = variants of: B1; test: kcat; higher = faster cleavage; RNA array
Outline: (§1)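 kobs was derived by fitting per-tile medians to one- or two-exponential decays after normalising signals to baseline and to non-cleaving reference variants. Those signals came from barcoded ribozyme variants transcribed in situ by E. coli RNA polymerase on sequenced MiSeq chips, followed through a hybridised Cy3 probe at 37 °C and imaged over ~14 h. Glucosamine-6-phosphate (40 μM to 10 mM) in HEPES/KCl/Mg(OAc)2 buffer was flowed in. Weighted Michaelis–Menten fits across concentrations then gave kcat and KM.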

glucosamine-6-phosphate [2] = variants of: B1; test: self-cleavage kobs at 40 uM GlcN6P; higher = faster cleavage; RNA array
Outline: as §1

glucosamine-6-phosphate [3] = variants of: B1; test: self-cleavage kobs at 160 uM GlcN6P; higher = faster cleavage; RNA array
Outline: as §1

glucosamine-6-phosphate [4] = variants of: B1; test: self-cleavage kobs at 640 uM GlcN6P; higher = faster cleavage; RNA array
Outline: as §1

glucosamine-6-phosphate [5] = variants of: B1; test: self-cleavage kobs at 2500 uM GlcN6P; higher = faster cleavage; RNA array
Outline: as §1

glucosamine-6-phosphate [6] = variants of: B1; test: KM; higher = weaker cofactor use; RNA array
Outline: as §1

glucosamine-6-phosphate [7] = variants of: B1; test: self-cleavage kobs at 10000 uM GlcN6P; higher = faster cleavage; RNA array
Outline: as §1

Row | Variant | kcat (glucosamine-6-phosphate [1]) [s⁻¹] | self-cleavage kobs at 40 uM GlcN6P (glucosamine-6-phosphate [2]) [s⁻¹] | self-cleavage kobs at 160 uM GlcN6P (glucosamine-6-phosphate [3]) [s⁻¹] | self-cleavage kobs at 640 uM GlcN6P (glucosamine-6-phosphate [4]) [s⁻¹] | self-cleavage kobs at 2500 uM GlcN6P (glucosamine-6-phosphate [5]) [s⁻¹] | KM (glucosamine-6-phosphate [6]) [µM] | self-cleavage kobs at 10000 uM GlcN6P (glucosamine-6-phosphate [7]) [s⁻¹]
1 | G38C C58G C70U | < 1e-05 | – | – | – | – | – | –
2 | G41A | 0.00567 ± 0.0025 | 0.000349 ± 0.00013 | 0.00036 ± 6.4e-05 | 0.000923 ± 0.0001 | 0.00264 ± 0.00017 | – | –
3 | A39G A52G | 0.00286 ± 0.00015 | – | 0.000117 ± 3.5e-05 | 0.000407 ± 8.1e-05 | 0.00108 ± 0.0003 | 3960 ± 330 | 0.00205 ± 0.00028
4 | G38U A48C A52C C71A | < 1e-05 | < 1e-05 | – | – | – | – | < 1e-05
5 | G38U | < 1e-05 | – | – | – | – | – | –
6 | G40U U46A | 0.000471 ± 0.00012 | – | – | 6.83e-05 ± 2.4e-05 | 0.00028 ± 5.4e-05 | 2940 ± 1400 | 0.000331 ± 7.2e-05
7 | A39U G41A | 0.00029 ± 1.6e-05 | – | 5.88e-05 ± 1.3e-05 | 0.00014 ± 1.5e-05 | 0.00025 ± 2.7e-05 | 651 ± 93 | 0.000257 ± 3e-05
8 | A39U A64C | 0.000269 ± 4.6e-05 | – | – | 5.07e-05 ± 7e-06 | 9.58e-05 ± 1.3e-05 | 3410 ± 1100 | 0.00021 ± 1.9e-05
9 | A39U A64U | 4.75e-05 ± 1.7e-06 | – | – | 2.64e-05 ± 9.3e-06 | 4e-05 ± 7e-06 | 537 ± 120 | 4.46e-05 ± 5.4e-06
10 | A39U G43U | 0.000561 ± 0.00011 | 1.76e-05 ± 8.1e-06 | 5.96e-05 ± 8.5e-06 | 0.000127 ± 1.3e-05 | 0.000418 ± 4.9e-05 | 1770 ± 600 | 0.00046 ± 4.6e-05
11 | A39C C58G | 1.1e-05 ± 2.2e-06 | – | – | – | – | – | –
12 | G40A A52G | 0.000342 ± 4.4e-05 | – | – | 0.000102 ± 1.6e-05 | 0.000251 ± 2.8e-05 | 1490 ± 450 | 0.000277 ± 3e-05
13 | G38C G66U | < 1e-05 | – | < 1e-05 | – | – | – | < 1e-05
14 | A39U U46C | 0.0117 ± 0.0022 | 0.000154 ± 1.5e-05 | 0.000743 ± 0.00014 | 0.00284 ± 0.00046 | 0.00541 ± 0.0019 | 2780 ± 640 | 0.00883 ± 0.0013
15 | A39U C50G C58U | 1.28e-05 ± 4e-06 | – | – | – | – | – | –
16 | G41A C70U | 0.0433 ± 0.0066 | 0.00159 ± 0.00013 | 0.0046 ± 0.0007 | 0.0179 ± 0.0025 | 0.0385 ± 0.013 | 1100 ± 210 | 0.0374 ± 0.0057
17 | G40A C70A | 0.000241 ± 1.6e-05 | 2.59e-05 ± 1.2e-05 | 6.86e-05 ± 1.9e-05 | 0.000163 ± 2.5e-05 | 0.000235 ± 4.9e-05 | 350 ± 60 | 0.000217 ± 3.8e-05

Row | Variant | kcat (glucosamine-6-phosphate [1]) [s⁻¹] | self-cleavage kobs at 40 uM GlcN6P (glucosamine-6-phosphate [2]) [s⁻¹] | self-cleavage kobs at 160 uM GlcN6P (glucosamine-6-phosphate [3]) [s⁻¹] | self-cleavage kobs at 640 uM GlcN6P (glucosamine-6-phosphate [4]) [s⁻¹] | self-cleavage kobs at 2500 uM GlcN6P (glucosamine-6-phosphate [5]) [s⁻¹] | KM (glucosamine-6-phosphate [6]) [µM] | self-cleavage kobs at 10000 uM GlcN6P (glucosamine-6-phosphate [7]) [s⁻¹]
18 | G38A U49A C58U | 2.37e-05 ± 3.2e-06 | – | – | – | – | 862 ± 380 | –
19 | A39G U45A | 0.0357 ± 0.011 | 0.00238 ± 0.00029 | 0.00768 ± 0.0018 | 0.0157 ± 0.0034 | 0.061 ± 0.03 | 581 ± 220 | 0.0497 ± 0.018
20 | A39G C67G | 0.00311 ± 0.00098 | 0.000189 ± 4.5e-05 | 0.000603 ± 0.00015 | 0.00174 ± 0.00035 | 0.00535 ± 0.0012 | 602 ± 300 | 0.00223 ± 0.00066
21 | G40C G66A | 0.00247 ± 0.00097 | 9.75e-05 ± 2.1e-05 | 0.000162 ± 4.5e-05 | 0.00111 ± 0.0003 | 0.00108 ± 0.00021 | – | 0.00269 ± 0.0004
22 | A39U A42G | 0.0208 ± 0.0077 | 0.000671 ± 0.00011 | 0.00186 ± 0.00055 | 0.0052 ± 0.0011 | 0.0216 ± 0.0065 | 1440 ± 690 | 0.019 ± 0.006
23 | A39U A42C | 0.000556 ± 3.1e-05 | – | 2.58e-05 ± 7.6e-06 | 9.53e-05 ± 1.1e-05 | 0.000273 ± 3.6e-05 | 3030 ± 290 | 0.000419 ± 3.9e-05
24 | G38U U54C | < 1e-05 | < 1e-05 | < 1e-05 | < 1e-05 | – | – | –
25 | G40A U45A | 0.00316 ± 0.00068 | 0.000251 ± 3.8e-05 | 0.000585 ± 0.00027 | 0.00157 ± 0.00029 | 0.00221 ± 0.00084 | 510 ± 160 | 0.00427 ± 0.00099
26 | G40C C58A | 1.41e-05 ± 2.3e-06 | – | < 1e-05 | – | – | – | –
27 | G40U U46C U47G | 2.86e-05 ± 4.9e-06 | – | – | – | – | – | –
28 | G40U A52G | 0.000217 ± 3.4e-05 | – | – | 7.61e-05 ± 1.5e-05 | 0.000112 ± 1.8e-05 | 1490 ± 600 | 0.000206 ± 2.5e-05
29 | G40U A52U | 0.000102 ± 6.2e-06 | – | – | – | 4.82e-05 ± 9.8e-06 | 2510 ± 550 | 8.17e-05 ± 6.8e-06
30 | G38U G62A | < 1e-05 | – | < 1e-05 | – | – | – | –
31 | G38U C70U | 1.27e-05 ± 2.6e-06 | – | – | – | – | – | –
32 | A39C A42C | 6.31e-05 ± 3.9e-06 | – | – | 3.24e-05 ± 1.5e-05 | 4.41e-05 ± 9.6e-06 | 890 ± 270 | 5.88e-05 ± 8.3e-06
33 | A39C A42G | 0.00493 ± 0.0008 | 0.000141 ± 1.4e-05 | 0.000376 ± 7.6e-05 | 0.00152 ± 0.00029 | 0.00282 ± 0.00046 | 1490 ± 310 | 0.0047 ± 0.00074
